The test deals with C3 degradation products deposited on the bacterial surface (human) (UniProt P01024). Kind of test: flow cytometry on cells; S. aureus JE2Δsbi spa::Tn opsonised in 10% NHS, incubated with polyclonal anti-human C3d antibody or not, washed, then probed with biotin-labelled Sbi-IV and streptavidin-AF488; gMFI.
Sequence of UniProt P01024 (P01024 23-1663): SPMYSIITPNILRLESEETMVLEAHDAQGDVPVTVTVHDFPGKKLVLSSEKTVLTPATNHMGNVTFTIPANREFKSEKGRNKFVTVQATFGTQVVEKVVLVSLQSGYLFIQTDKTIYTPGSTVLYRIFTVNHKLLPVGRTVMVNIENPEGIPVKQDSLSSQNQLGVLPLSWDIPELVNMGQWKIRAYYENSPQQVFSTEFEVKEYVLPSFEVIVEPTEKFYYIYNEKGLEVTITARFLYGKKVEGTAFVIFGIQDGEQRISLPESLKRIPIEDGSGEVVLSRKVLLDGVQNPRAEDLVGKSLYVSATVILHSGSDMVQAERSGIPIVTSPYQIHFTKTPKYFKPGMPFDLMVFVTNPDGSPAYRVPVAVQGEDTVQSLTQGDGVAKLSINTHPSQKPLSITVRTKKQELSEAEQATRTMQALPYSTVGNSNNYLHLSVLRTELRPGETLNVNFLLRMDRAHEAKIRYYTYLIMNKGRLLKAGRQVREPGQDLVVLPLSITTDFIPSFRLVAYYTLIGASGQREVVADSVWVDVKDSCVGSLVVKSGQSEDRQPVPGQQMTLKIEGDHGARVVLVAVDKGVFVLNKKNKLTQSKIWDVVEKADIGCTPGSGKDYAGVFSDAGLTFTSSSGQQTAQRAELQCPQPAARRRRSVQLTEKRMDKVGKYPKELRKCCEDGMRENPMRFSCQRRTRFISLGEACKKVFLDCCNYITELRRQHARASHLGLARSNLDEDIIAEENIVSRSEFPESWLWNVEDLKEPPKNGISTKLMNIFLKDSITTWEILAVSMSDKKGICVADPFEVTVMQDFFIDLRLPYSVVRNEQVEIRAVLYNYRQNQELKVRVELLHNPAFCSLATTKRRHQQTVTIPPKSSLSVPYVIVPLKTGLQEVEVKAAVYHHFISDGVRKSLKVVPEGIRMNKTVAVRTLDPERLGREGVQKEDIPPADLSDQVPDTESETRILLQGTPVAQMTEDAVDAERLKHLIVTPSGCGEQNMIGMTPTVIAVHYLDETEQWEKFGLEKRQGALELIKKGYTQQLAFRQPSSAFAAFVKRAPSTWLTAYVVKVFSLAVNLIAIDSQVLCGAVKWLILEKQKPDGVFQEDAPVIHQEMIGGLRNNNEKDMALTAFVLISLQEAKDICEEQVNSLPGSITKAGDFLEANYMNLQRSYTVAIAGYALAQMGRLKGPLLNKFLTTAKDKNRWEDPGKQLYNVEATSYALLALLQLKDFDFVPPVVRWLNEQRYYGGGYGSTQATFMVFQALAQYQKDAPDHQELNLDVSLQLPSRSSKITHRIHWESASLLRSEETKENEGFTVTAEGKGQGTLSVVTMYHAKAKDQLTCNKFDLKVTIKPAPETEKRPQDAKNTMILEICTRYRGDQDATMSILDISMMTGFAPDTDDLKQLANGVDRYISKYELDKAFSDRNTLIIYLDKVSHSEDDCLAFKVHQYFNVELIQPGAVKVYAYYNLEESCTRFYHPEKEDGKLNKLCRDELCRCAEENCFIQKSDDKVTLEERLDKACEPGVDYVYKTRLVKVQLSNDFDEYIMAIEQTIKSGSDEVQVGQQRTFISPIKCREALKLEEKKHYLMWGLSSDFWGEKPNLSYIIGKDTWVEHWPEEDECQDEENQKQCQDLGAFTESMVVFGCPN

Take “biotin-labelled Sbi-IV (complement C3 binding domain IV of the staphylococcal Sbi protein) (from UniProt Q931F4 198-266) (domain or fragment)”: the percent reduction of binding after polyclonal anti-C3d antibodies is 50%.

The record behind these values is article PMC9492775.
